This passage reports Est. kcat/KM (cleavage efficiency) results from patent US20240141007A1.

The target of one assay is UCM22. Kind of assay: cell-based or functional assay.
The next assay has as its target UCM23. The assay is described as follows: cell-based or functional assay.

Several values for one entry are separate records, joined by “and”; a condition that tells them apart may be missing. Equal values may be shown once.

B1: MMP-7 (enzyme, UniProt P09237 95-267, looked up)
chain: YSLFPNSPKWTSKVVTYRIVSYTRDLPHITVDRLVSKALNMWGKEIPLHFRKVVWGTADIMIGFARGAHGDSYPFDGPGNTLAHAFAPGTGLGGDAHFDEDERWTDGSSLGINFLYAATHELGHSLGMGHSSDPNAVMYPTYGNGDPQNFKLSQDDIKGIQKLYGKRSNSRKK
Consider B1, for which the Est. kcat/KM (cleavage efficiency) is 1800 M^-1S^-1 and 2100 M^-1S^-1 in the assay with UCM22; 2000 M^-1S^-1 and 2100 M^-1S^-1 with UCM23.
